Reference: paper PMC12784932, “Keratin 15 promotes a progenitor cell state in basal keratinocytes of skin epidermis” (The Journal of Cell Biology, 2026)

Target: T1, EGFP-K14 WT (human keratin 14) (human, UniProt P02533 1-472)
T1 construct: keratin 14 (K14), human; codon-optimized KRT14 cDNA synthesized by Twist Biosciences; Co-expressed with untagged human K5, its type II copolymerization partner; also called WT K14; source: HeLa, transfected (nucleofection) together with untagged K5, in lysate (detergent-soluble pool)
T1 sequence (looked up): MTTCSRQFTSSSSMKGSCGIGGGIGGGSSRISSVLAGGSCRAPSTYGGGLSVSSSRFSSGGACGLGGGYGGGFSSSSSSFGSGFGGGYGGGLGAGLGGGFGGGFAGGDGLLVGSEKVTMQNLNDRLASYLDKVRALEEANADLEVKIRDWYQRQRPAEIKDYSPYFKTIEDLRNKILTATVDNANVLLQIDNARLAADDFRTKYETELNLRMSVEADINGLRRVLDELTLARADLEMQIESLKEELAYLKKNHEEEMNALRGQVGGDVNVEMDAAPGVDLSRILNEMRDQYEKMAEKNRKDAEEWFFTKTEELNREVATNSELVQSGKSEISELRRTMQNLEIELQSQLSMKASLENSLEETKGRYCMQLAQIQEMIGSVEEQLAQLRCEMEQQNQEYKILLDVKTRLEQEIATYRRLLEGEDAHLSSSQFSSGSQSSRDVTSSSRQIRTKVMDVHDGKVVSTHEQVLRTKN
Test: co-IP; GFP-Trap Magnetic Agarose (25 μl beads) on 600 μg lysate of HeLa cells cotransfected with untagged K5 and the EGFP-tagged keratin; lysis in 10 mM Tris/Cl pH 7.5, 150 mM NaCl, 0.5 mM EDTA, 0.5% Nonidet P-40 Substitute (detergent-soluble pool); 4°C, 1 h; western blot for endogenous 14-3-3σ; 14-3-3σ signal normalized to GFP
Settings: partners not purified

B1: 14-3-3σ (stratifin) (natural protein, human (endogenous in HeLa), UniProt P31947 1-248, looked up)
chain: MERASLIQKAKLAEQAERYEDMAAFMKGAVEKGEELSCEERNLLSVAYKNVVGGQRAAWRVLSSIEQKSNEEGSEEKGPEVREYREKVETELQGVCDTVLGLLDSHLIKEAGDAESRVFYLKMKGDYYRYLAEVATGDDKKRIIDSARSAYQEAMDISKKEMPPTNPIRLGLALNFSVFHYEIANSPEEAISLAKTTFDEAMADLHTLSEDSYKDSTLIMQLLRDNLTLWTADNAGEEGGEAPQEPQS
notes: 14-3-3σ / stratifin, endogenous in HeLa cells; also called stratifin/14-3-3σ; endogenous 14-3-3σ; source: endogenous, HeLa lysate; endogenous, fixed HeLa cells
- fold 14-3-3σ in the immunoprecipitate (normalized to GFP) against the EGFP-K15 WT immunoprecipitate: > 2 fold
